What was measured:
[1] = test system: Cortactin (endogenous, immunoprecipitated from PDGF-stimulated cells)
[2] = biological target: Shp1 (on Human ProtoArray microarray) (UniProt P29350)
[3] = biological target: CRK (positive control substrate printed on the Human ProtoArray microarray) (UniProt P46108)
Sequence of CRK (positive control substrate printed on the Human ProtoArray microarray) (P46108 whole entry): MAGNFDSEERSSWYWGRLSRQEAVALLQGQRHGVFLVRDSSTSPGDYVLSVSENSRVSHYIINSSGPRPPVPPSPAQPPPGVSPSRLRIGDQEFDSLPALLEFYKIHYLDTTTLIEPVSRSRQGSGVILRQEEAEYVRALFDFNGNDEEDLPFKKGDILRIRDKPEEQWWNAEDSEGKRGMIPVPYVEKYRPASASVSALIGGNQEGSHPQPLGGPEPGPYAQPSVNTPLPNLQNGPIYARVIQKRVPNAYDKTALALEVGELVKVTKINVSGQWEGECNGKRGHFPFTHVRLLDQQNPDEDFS

Sequence of Shp1 (on Human ProtoArray microarray) (P29350 whole entry): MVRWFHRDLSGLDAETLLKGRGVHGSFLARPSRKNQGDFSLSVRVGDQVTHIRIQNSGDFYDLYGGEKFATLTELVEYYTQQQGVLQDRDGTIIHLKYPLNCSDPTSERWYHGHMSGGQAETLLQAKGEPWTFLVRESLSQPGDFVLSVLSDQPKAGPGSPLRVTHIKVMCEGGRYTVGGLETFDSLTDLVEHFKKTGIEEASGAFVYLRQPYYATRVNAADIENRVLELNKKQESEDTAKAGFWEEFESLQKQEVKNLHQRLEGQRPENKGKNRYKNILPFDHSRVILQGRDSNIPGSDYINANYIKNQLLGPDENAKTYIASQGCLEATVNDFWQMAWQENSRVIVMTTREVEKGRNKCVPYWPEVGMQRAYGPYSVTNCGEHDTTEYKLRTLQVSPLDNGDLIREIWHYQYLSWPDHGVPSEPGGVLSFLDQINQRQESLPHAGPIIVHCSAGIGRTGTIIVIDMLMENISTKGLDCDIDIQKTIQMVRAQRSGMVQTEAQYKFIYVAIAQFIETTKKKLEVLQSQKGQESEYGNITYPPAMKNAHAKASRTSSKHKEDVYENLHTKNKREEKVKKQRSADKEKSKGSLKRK

| Substance | PDGF-stimulated tyrosine phosphorylation of Cortactin (immunoprecipitation and anti-phosphotyrosine immunoblot) [1] | phosphorylation on Human ProtoArray microarray [2] | phosphorylation on Human ProtoArray microarray (radiolabeled ATP) [3] |
| --- | --- | --- | --- |
| ABL (endogenous, in wild-type cell line) | PDGF stimulates phosphorylation of Cortactin 3-fold in wild type cells but not in abl-/-, arg-/-, and abl-/-arg-/- |  |  |
| ARG (endogenous, in wild-type cell line) | PDGF stimulates phosphorylation of Cortactin 3-fold in wild type cells but not in abl-/-, arg-/-, and abl-/-arg-/- |  |  |
| ARG kinase (protein tyrosine kinase ARG used to probe the Human ProtoArray microarrays) |  | one of the proteins proven to be a substrate for ARG on a Human ProtoArray microarray, Shp1 | This kinase phosphorylated the control substrate CRK in every subarray |

From patent US20060141529
